Results as given in PMC9606263, “Polerovirus N-terminal readthrough domain structures reveal molecular strategies for mitigating virus transmission by aphids” (Nature Communications, 2022).

Columns and labels:
[1] = molecular target: N-terminal portion of the readthrough domain of turnip yellows virus (TuYV NRTD; residues 224-459) (turnip yellows virus); experiment: SEC-MALS; loaded at 4 mg/mL on Superdex 200 10/300 Increase; 20 mM HEPES pH 7.5, 150 mM KCl, 1 mM DTT; 0.5 ml/min
[2] = molecular target: the molecule itself; experiment: as above

| Molecule | stoichiometry N [1] | stoichiometry N [2] |
| --- | --- | --- |
| N-terminal portion of the readthrough domain of turnip yellows virus (TuYV NRTD; residues 224-459) (from UniProt P09516 224-459) (domain or fragment) | 2 |  |
| N-terminal portion of the potato leafroll virus readthrough domain (PLRV NRTD; residues 230-458), native (domain or fragment, Readthrough protein (RTP, CP-RTD fusion) of potato leafroll virus, N-terminal portion of the readthrough domain, residues 230-458 of the complete RTP fusion; 6xHis-NusA removed with HRV3C protease; also called WT PLRV ^NRTD; source: E. coli BL21(DE3), purified (nickel column, HiTrap Q, SEC); not shown: 6xHis, N-terminal, cleaved; NusA, N-terminal, cleaved) HERFIAYVGIPMLTIQARENDDQIILGSLGSQRMKYIEDENQNYTKFSSEYYSQSSMQAVPMYYFNVPKGQWSVDISCEGYQPTSSTSDPNRGRSDGMIAYSNADSDYWNVGEADGVKISKLRNDNTYRQGHPELEINSCHFREGQLLERDATISFHVEAPTDGRFFLVGPAIQKTAKYNYTISYGDWTDRDMELGLITVVLDEHLEGTGSANRVRRPPREGHTYMASP |  | 2 |
